B1: CXCL9 (ligand)
chain: TPVVRKGRCSCISTNQGTIHLQSLKDLKQFAPSPSCEKIEIIATLKNGVQTCLNPDSADVKELIKKWEKQVSQKKKQKNGKKHQKKKVLKVRKSQRSRQKKTT
B2: CXCL14 (ligand)
chain: SKCKCSRKGPKIRYSDVKKLEMKPKYPHCEEKMVIITTKSVSRYRGQEHCLHPKLQSTKRFIKWYNAWNEKRRVYEE
B3: CCL5 (ligand)
chain: SPYSSDTTPCCFAYIARPLPRAHIKEYFYTSGKCSNPAVVFVTRKNRQVCANPEKKWVREYINSLEMS
B4: CCL21 (ligand)
chain: SDGGAQDCCLKYSQRKIPAKVVRSYRKQEPSLGCSIPAILFLPRKRSQAELCADPKELWVQQLMQHLDKTPSPQKPAQGCRKDRGASKTGKKGKGSKGCKRTERSQTPKGP
B5: HCoV-OC43 nucleocapsid (N) protein, 2X-StrepTag tagged (natural protein)
chain: MSFTPGKQSSSRASSGNRSGNGILKWADQSDQVRNVQTRGRRAQPKQTATSQQPSGGNVVPYYSWFSGITQFQKGKEFEFVEGQGPPIAPGVPATEAKGYWYRHNRGSFKTADGNQRQLLPRWYFYYLGTGPHAKDQYGTDIDGVYWVASNQADVNTPADIVDRDPSSDEAIPTRFPPGTVLPQGYYIEGSGRSAPNSRSTSRTSSRASSAGSRSRANSGNRTPTSGVTPDMADQIASLVLAKLGKDATKPQQVTKHTAKEVRQKILNKPRQKRSPNKQCTVQQCFGKRGPNQNFGGGEMLKLGTSDPQFPILAELAPTAGAFFFGSRLELAKVQNLSGNPDEPQKDVYELRYNGAIRFDSTLSGFETIMKVLNENLNAYQQQDGMMNMSPKPQRQRGHKNGQGENDNISVAVPKSRVQQNKSRELTAEDISLLKKMDEPYTEDTSEI
B6: IL27 (complex)
chain 1: FPRPPGRPQLSLQELRREFTVSLHLARKLLSEVRGQAHRFAESHLPGVNLYLLPLGEQLPDVSLTFQAWRRLSDPERLCFISTTLQPFHALLGGLGTQGRWTNMERMQLWAMRLDLRDLQRHLRFQVLAAGFNLPEEEEEEEEEEEEERKGLLPGALGSALQGPAQVSWPQLLSTYRLLHSLELVLSRAVRELLLLSKAGHSVWPLGFPTLSPQP
chain 2: RKGPPAALTLPRVQCRASRYPIAVDCSWTLPPAPNSTSPVSFIATYRLGMAARGHSWPCLQQTPTSTSCTITDVQLFSMAPYVLNVTAVHPWGSSSSFVPFITEHIIKPDPPEGVRLSPLAERQLQVQWEPPGSWPFPEIFSLKYWIRYKRQGAARFHRVGPIEATSFILRAVRPRARYYVQVAAQDLTDYGELSDWSLPATATMSLGK
B7: CXCL11 (ligand)
chain: FPMFKRGRCLCIGPGVKAVKVADIEKASIMYPSNNCDKIEVIITLKENKGQRCLNPKSKQARLIIKKVERKNF
B8: CCL25 (ligand)
chain: QGVFEDCCLAYHYPIGWAVLRRAWTYRIQEVSGSCNLPAAIFYLPKRHRKVCGNPKSREVQRAMKLLDARNKVFAKLHHNTQTFQAGPHAVKKLSSGNSKLSSSKFSNPISSSKRNVSLLISANSGL
B9: CCL13 (ligand)
chain: not shown
B10: CCL11 (ligand)
chain: not shown
B11: CXCL13 (ligand)
chain: VLEVYYTSLRCRCVQESSVFIPRRFIDRIQILPRGNGCPRKEIIVWKKNKSIVCVDPQAEWIQRMMEVLRKRSSSTLPVPVFKRKIP
B12: CCL28 (ligand)
chain: SEAILPIASSCCTEVSHHISRRLLERVNMCRIQRADGDCDLAAVILHVKRRRICVSPHNHTVKQWMKVQAAKKNGKGNVCHRKKHHGKRNSNRAHQGKHETYGHKTPY
B13: CCL26 (ligand)
chain: TRGSDISKTCCFQYSHKPLPWTWVRSYEFTSNSCSQRAVIFTTKRGKKVCTHPRKKWVQKYISLLKTPKQL

What was measured:
[1] = molecular target: B5; experiment: BLI
CXCL12α = CXCL12α (human, UniProt P48061-2 22-89); experiment: BLI
Chain of CXCL12α (P48061 22-89): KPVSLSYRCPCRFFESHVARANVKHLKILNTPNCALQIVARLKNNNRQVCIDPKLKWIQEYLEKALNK

Row | Binder | Kd [1] [µM] | koff [1] [s⁻¹] | kon [1] [M⁻¹ s⁻¹] | Kd (CXCL12α) [µM] | koff (CXCL12α) [s⁻¹] | kon (CXCL12α) [M⁻¹ s⁻¹]
1 | B1 | 0.029 | 0.0022 | 82000 |  |  | 
2 | B2 | 0.58 | 0.0063 | 12000 |  |  | 
3 | B3 | 56 | 0.015 | 2100 |  |  | 
4 | B4 | 0.29 | 0.012 | 67000 |  |  | 
5 | B5 |  |  |  | 0.00046 | 3.7e-05 | 62000
6 | B6 | 0.055 | 0.0024 | 51000 |  |  | 
7 | B7 | 0.73 | 0.012 | 18000 |  |  | 
8 | B8 | 0.61 | 0.0048 | 8300 |  |  | 
9 | B9 | 1.6 | 0.025 | 19000 |  |  | 
10 | B10 | 1.4 | 0.021 | 17000 |  |  | 
11 | B11 | 0.14 | 0.0046 | 44000 |  |  | 
12 | B12 | 0.027 | 0.0015 | 60000 |  |  | 
13 | B13 | 0.62 | 0.014 | 20000 |  |  | 
